In the supplement of paper PMC12042874:
± gives the uncertainty stated by the source.

Experiment: amyloid nucleation score (Sup35N fusion, yeast selection) (log enrichment); library NNK1; higher = more nucleation; inactive = no reads after selection
Outline: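 The nucleation score is a DiMSum log enrichment of output over input reads, centred on the mode score of non-aggregating sequences. Sequences under 100 input reads were excluded, and reads came from Illumina sequencing of plasmid inserts. Psi-negative yeast expressing Sup35N fused to peptides of 20 random codons were induced with 100 μM copper sulfate for 24 hours and grown 7 days at 30°C on medium lacking adenine and uracil. Random libraries had three technical output replicates.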
IYKVEFLTCFLDEGGWSPKV showed an amyloid nucleation score of -0.692 ± 0.95.
IYNWH gave an amyloid nucleation score of 0.849 ± 0.66.
IYRAHYAIYSAF showed an amyloid nucleation score of -0.026 ± 0.64.
Substance IYRSHRMPKSTRTLV has an amyloid nucleation score of -1.16 ± 1.9.
Substance IYRSMNRLVVQEGYAFIGGG has an amyloid nucleation score of 2 ± 0.3.
In the case of IYVITVRPNVHNTLMHLIVT, the amyloid nucleation score is reported as 0.374 ± 0.73.
With IYWCMM the amyloid nucleation score was 7.125 ± 0.057.
KAAGMGSCSYTMVNYTPDAG gave an amyloid nucleation score of 1.39 ± 0.23.
KAEVRVRARELAEGMGARGR gave an amyloid nucleation score of 0.693 ± 0.72.
With KAEYSDLASFGCHGHEEGGG the amyloid nucleation score was 0.793 ± 1.
KAFIQTVLRNQVSWLANTPH gave an amyloid nucleation score of -0.745 ± 0.98.
In the case of KANFFTLRSMFWGPMN, the amyloid nucleation score is reported as 1.15 ± 0.64.
With KASCVVLAMLWLVLALGEPG the amyloid nucleation score was 0.116 ± 0.81.
Work on KCFAFRSLAHIASTCGWCLN yielded an amyloid nucleation score of 2.4 ± 0.31.
Substance KCIQGTGSLWD has an amyloid nucleation score of -0.128 ± 0.3.
KCIWFMHDFCYMVLMR gave an amyloid nucleation score of -0.164 ± 0.72.
Work on KDARLHFSWRL yielded an amyloid nucleation score of 0.933 ± 0.6.
With KDLLMKV the amyloid nucleation score was 0.507 ± 0.64.
In the case of KEILVGLPMGGVRGCGSSSG, the amyloid nucleation score is reported as 0.505 ± 1.2.
KESLLLTQCGYYMGSAKMVW showed an amyloid nucleation score of -1.03 ± 1.1.
KETSGYRFYRMANLP showed an amyloid nucleation score of -0.21 ± 1.2.
Work on KEWFYYLVDELCGGLCNPVR yielded an amyloid nucleation score of 0.39 ± 1.2.
With KEYGVSL the amyloid nucleation score was -0.93 ± 0.55.
Substance KEYNLLHDL has an amyloid nucleation score of -0.691 ± 1.7.
With KFILTVPMANSATYTFACLD the amyloid nucleation score was “inactive”.
KFMVNVIV gave an amyloid nucleation score of 1.24 ± 0.22.
Work on KFNDDRNGIATLQRHHIAGF yielded an amyloid nucleation score of -0.969 ± 0.71.
In the case of KFSCGTFSLRHPT, the amyloid nucleation score is reported as 0.725 ± 0.52.
Work on KFVYVVVMSMARACRNVPGH yielded an amyloid nucleation score of 0.272 ± 0.39.
KFYYSLDVSSRCNFVLLEVE gave an amyloid nucleation score of 0.669 ± 0.65.
With KGAGMQTTQCVCKVYKLSWA the amyloid nucleation score was 0.281 ± 0.24.
For KGFVDNYVTVIVVWT, the amyloid nucleation score was 1.64 ± 0.18.
For KGGPRPQMC, the amyloid nucleation score was -0.244 ± 0.27.
In the case of KGICRGRSLSVPESWAPFR, the amyloid nucleation score is reported as 0.133 ± 0.31.
KGMLLCYFPNKCPAWEAKCG showed an amyloid nucleation score of 5.17 ± 0.059.
With KGRSNLIADFGDLFGGLYTY the amyloid nucleation score was -0.57 ± 0.37.
Substance KGVCMTRHD has an amyloid nucleation score of -0.136 ± 1.6.
KHRLGQSMVSVRHYRFWGRI gave an amyloid nucleation score of -0.437 ± 0.57.
Work on KIILPVSGVKINMQAWSRSH yielded an amyloid nucleation score of 4.07 ± 0.091.
KIKLMF showed an amyloid nucleation score of -0.416 ± 1.6.
With KILRYSTTGSSELEWWNMRS the amyloid nucleation score was 0.069 ± 0.49.
In the case of KIRVDRFNIRSCDIGSDLCY, the amyloid nucleation score is reported as -1.07 ± 0.43.
In the case of KISVSTVLSLLFGI, the amyloid nucleation score is reported as 1.3 ± 0.76.
KKDTDRSIVFVSLYSPDSKA gave an amyloid nucleation score of -0.064 ± 0.5.
Work on KKFEVSL yielded an amyloid nucleation score of 0.159 ± 0.68.
KKFFRVLLSLSSMLVLCCFQ gave an amyloid nucleation score of -0.317 ± 1.4.
In the case of KKLNSCF, the amyloid nucleation score is reported as 0.533 ± 0.63.
With KKVFFHKRVLSDARCKPVKS the amyloid nucleation score was -0.567 ± 0.41.
For KKYLVNNYFLGFR, the amyloid nucleation score was 0.127 ± 0.25.
KLAYKRSQMLTVVPRCSQGT gave an amyloid nucleation score of -0.39 ± 0.53.
In the case of KLDCMVDDICGTSGTVFLCL, the amyloid nucleation score is reported as 4.85 ± 0.061.
Work on KLDGVVPDVYLSGRLPQAWL yielded an amyloid nucleation score of 0.205 ± 0.86.
In the case of KLEGSARSGTTSRGSFSECV, the amyloid nucleation score is reported as 0.254 ± 0.38.
KLIPCLLVITINLGHKATLS gave an amyloid nucleation score of 0.482 ± 0.39.
With KLNVFDLVNRAKVGHCGSSG the amyloid nucleation score was 0.026 ± 0.51.
With KLRIRSWKVFTPNSLLVVAI the amyloid nucleation score was -0.893 ± 1.1.
KLYGTRFPQFSRSVNEYC gave an amyloid nucleation score of 0.111 ± 0.36.
Work on KMLFGH yielded an amyloid nucleation score of -0.085 ± 0.79.
Work on KMLSMLTDRSFWLNHWSFFQ yielded an amyloid nucleation score of -0.573 ± 1.4.
KMSNCWLF gave an amyloid nucleation score of -0.881 ± 0.55.
For KNCAAFLHRHGFEVAQRGTC, the amyloid nucleation score was -0.337 ± 0.78.
Work on KNDDTRFR yielded an amyloid nucleation score of 0.358 ± 0.31.
With KNDGYIH the amyloid nucleation score was -0.561 ± 1.4.
KNVNAVR showed an amyloid nucleation score of 0.173 ± 0.79.
KPDRQVANFRDWFG showed an amyloid nucleation score of -0.244 ± 1.2.
For KPWYFVISW, the amyloid nucleation score was -0.007 ± 1.2.
With KQSCWALSYVYMTSHVLSGG the amyloid nucleation score was 0.495 ± 1.4.
Work on KRGNPMTHAFLWPVMSYVFR yielded an amyloid nucleation score of 0.295 ± 0.97.
KRMVCDVCIDVMPSEFKQAG showed an amyloid nucleation score of 1.02 ± 0.76.
Substance KRSANVYRLRCLGGKMLHVN has an amyloid nucleation score of 3.34 ± 0.081.
For KRWYTCYVYVFRICMRVLCR, the amyloid nucleation score was 0.731 ± 0.38.
Substance KSEDTSRFYTLMMSMYTQRF has an amyloid nucleation score of 1.76 ± 0.14.
With KSKRWELLPFEVRAARAVGQ the amyloid nucleation score was -0.024 ± 0.3.
KSLFNYCVFSDGL showed an amyloid nucleation score of 7.281 ± 0.051.
KSQDKRYLSIPGCVLSFWGE gave an amyloid nucleation score of 0.069 ± 0.46.
With KSQLRQSTYPS the amyloid nucleation score was -0.358 ± 0.82.
Substance KSSSV has an amyloid nucleation score of -0.352 ± 0.6.
With KSSTKGLISRGRFGYRVPSN the amyloid nucleation score was -0.215 ± 1.7.
For KSTSQSYVIFFAQCFKYTTV, the amyloid nucleation score was -0.592 ± 0.31.
For KSYSMMMSMMGNRMWVKRLV, the amyloid nucleation score was -0.02 ± 0.5.
In the case of KTCYLQ, the amyloid nucleation score is reported as -0.284 ± 1.1.
In the case of KTFYLWW, the amyloid nucleation score is reported as 3.04 ± 0.14.
KTGPAA gave an amyloid nucleation score of -0.17 ± 0.73.
KTRFMLVLKLKRDNDLKMRF gave an amyloid nucleation score of -0.288 ± 0.3.
In the case of KTWVYSRRRRCVRPGCCGDV, the amyloid nucleation score is reported as 3.3 ± 0.16.
With KVGLLWGT the amyloid nucleation score was 0.197 ± 0.93.
KVKANILVFLTKLSMRPTKP gave an amyloid nucleation score of 1.86 ± 0.29.
